The source of these data is PMC3693578 (Molecular cell, 2012).

What is called stoichiometry N is the number of molecules, sites or subunits per partner or assembly.

In the assay the target is T1, TSC1 (hamartin), endogenous human (human (endogenous in HeLa), UniProt Q92574 1-1164).
T1 sequence (looked up): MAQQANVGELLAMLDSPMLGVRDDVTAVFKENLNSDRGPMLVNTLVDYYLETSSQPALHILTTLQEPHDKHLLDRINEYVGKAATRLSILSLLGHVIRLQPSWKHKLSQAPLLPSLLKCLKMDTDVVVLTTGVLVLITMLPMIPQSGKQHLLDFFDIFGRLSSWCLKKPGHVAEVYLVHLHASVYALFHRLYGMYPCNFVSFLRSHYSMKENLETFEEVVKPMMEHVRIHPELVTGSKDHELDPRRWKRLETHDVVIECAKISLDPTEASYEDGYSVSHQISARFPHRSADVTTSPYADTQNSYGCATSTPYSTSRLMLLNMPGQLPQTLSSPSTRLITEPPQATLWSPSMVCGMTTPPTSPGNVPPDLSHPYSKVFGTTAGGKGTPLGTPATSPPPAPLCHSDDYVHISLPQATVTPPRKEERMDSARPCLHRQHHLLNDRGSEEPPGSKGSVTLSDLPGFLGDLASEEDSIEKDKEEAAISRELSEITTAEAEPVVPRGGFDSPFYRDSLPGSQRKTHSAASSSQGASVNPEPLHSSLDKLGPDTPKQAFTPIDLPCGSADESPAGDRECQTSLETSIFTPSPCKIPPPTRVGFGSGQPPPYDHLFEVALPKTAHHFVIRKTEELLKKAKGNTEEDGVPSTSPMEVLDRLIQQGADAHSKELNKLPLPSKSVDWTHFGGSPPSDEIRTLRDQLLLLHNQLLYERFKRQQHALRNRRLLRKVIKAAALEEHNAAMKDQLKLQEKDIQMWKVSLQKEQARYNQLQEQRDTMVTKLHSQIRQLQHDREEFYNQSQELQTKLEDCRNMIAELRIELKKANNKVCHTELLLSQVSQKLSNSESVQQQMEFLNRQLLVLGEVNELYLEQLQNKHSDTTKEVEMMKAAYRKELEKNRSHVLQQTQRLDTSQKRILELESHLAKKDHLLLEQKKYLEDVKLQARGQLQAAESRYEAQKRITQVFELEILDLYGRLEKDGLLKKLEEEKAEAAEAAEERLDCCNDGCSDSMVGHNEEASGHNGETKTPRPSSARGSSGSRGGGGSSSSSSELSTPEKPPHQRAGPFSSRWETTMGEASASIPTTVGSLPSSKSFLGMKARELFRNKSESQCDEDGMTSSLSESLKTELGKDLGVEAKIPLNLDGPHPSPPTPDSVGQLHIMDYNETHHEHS
Kind of assay: affinity purification with mass spectrometry.

B1: TSC2 (tuberin), endogenous human (natural protein)
chain: not shown
B1: the “stoichiometry N” value is about 1.
